Measured values published in patent publication US20140056903A1 (Regeneron, published 2014).
Blank lines part the entries; values can stand above or below the binder they belong to.

Key:
[1] = target: T1, human GFRα3 expressed with a C-terminal myc-myc-hexahistidine tag (human, UniProt O60609 32-374, biotinylated (sites not given) in ELISA format 2 and in the Octet cross-competition; not in SPR); experiment: Octet cross-competition; biotin-hGFRα3-mmH pre-saturated with first antibody H4H2355S
T1 construct: also called hGFRα3-mmh; hGFRα3-mmH
Procedure: (§1) A cross-competition assay was conducted to assess the ability of select antibodies to compete with one another for binding to human GFRα3 using an Octet RED384 biosensor (Fortebio Inc.). The entire experiment was performed at 25° C. with the flow rate of 1000 rpm in Octet HBST buffer (0.01 M HEPES pH7.4, 0.15M NaCl, 3 mM EDTA, 0.05% v/v Surfactant P20, 0.1 mg/mL BSA). To assess whether 2 antibodies were able to compete with one another for binding to their respective epitopes on biotinylated recombinant human GFRα3 expressed with a C-terminal myc-myc-hexahistidine tag (biotin-hGFRα3-mmH; SEQ ID:370), around ˜1.2 nm of biotin-hGFRα3-mmH was first captured onto streptavidin-coated Octet sensor tips (Fortebio Inc, #18-5019) by submerging the tips for 1 minute into a 10 μg/mL solution of biotin-hGFRα3-mmH. The antigen coated sensor tips were then placed into wells containing 25 μg/mL solution of a first anti-GFRα3 monoclonal antibody for 4 minutes to saturate the biotin-hGFRα3-mmH surface. The sensor tips were then subsequently dipped into wells containing 25 μ/mL solution of a second anti-GFRα3 monoclonal antibody. The sensor tips were washed in Octet HBST buffer in between every step of the experiment. The real-time binding response was monitored during the course of the experiment and the binding response at the end of every step was recorded as shown in FIG. 9. The response of mAb-2 binding to biotin-hGFRα3-mmH pre-complexed with the first antibody was compared and competitive/non-competitive behavior of different anti-GFRα3 monoclonal antibodies was determined.

[2] = target: T1, human GFRα3 expressed with a C-terminal …; experiment: Octet RED384; 25 µg/mL first antibody on streptavidin-captured biotin-hGFRα3-mmH
Procedure: as §1

[3] = target: T1, human GFRα3 expressed with a C-terminal …; experiment: blocking ELISA 2, biotin-hGFRα3-mmH to coated hARTEMIN-mmH + hRET-10His
Procedure: The equilibrated sample solutions were then transferred to the hARTEMIN-mmH-coated plate. […] Absorbance was recorded at 450 nm on a Victor X5 plate reader (Perkin Elmer) to determine the amount of free hGFRα3-hFc in the pre-equilibrated hGFRα3-hFc-antibody solutions that was able to bind to the plate coated with hARTEMIN-mmH. IC₅₀ values, defined as the concentration of antibody required to reduce the signal from a constant concentration of hGFRα3-hFc by 50%, were calculated from the data using Prism software from GraphPad. The absorbance measured at the constant amount of 120 pM hGFRα3-hFc in the absence of anti-GFRα3 antibody is defined as 0% blocking and the absorbance with no added hGFRα3-hFc is defined as 100% blocking. The observed absorbance in the wells containing the highest antibody concentration was used to calculate the maximum blocking percent shown in the table.
In the second ELISA format, the plates, samples and data were processed similarly as for the first format except both hARTEMIN-mmH and human RET with a C-terminal 10 histidine tag (hRET-10His; R&D Systems, #1168-CR/CF) were coated for the blocking ELISA experiment. The 96-well microtiter plates were coated with a mixture of 1.2 ug/ml hARTEMIN-mmH and 6.9 ug/ml hRET-10His proteins in PBS overnight at 4° C. and then blocked with a solution of 0.5% (w/v) BSA. A constant amount of biotinylated human GFRα3 with a C-terminal myc-myc-hexahistidine tag (biotin-hGFRα3-mmH; SEQ ID:370) at 1 nM was pre-mixed with varied amounts of anti-GFRα3 antibodies, ranging from 0 to ˜100 nM in serial dilutions, followed by a 1 hour incubation at RT to allow antibody-biotin-hGFRα3-mmH binding to reach equilibrium. The equilibrated samples were then transferred to the coated plate. After 1 hour of binding, the plate was washed, then the bound biotin-hGFRα3-mmH was detected using HRP conjugated streptavidin (Pierce, #N200), and colorimetric signals were developed using TMB HRP substrates.

[4] = target: T1, human GFRα3 expressed with a C-terminal …; experiment: Octet cross-competition; biotin-hGFRα3-mmH pre-saturated with first antibody H4H2291S
Procedure: as §1

T1 sequence (O60609 other isoform, or with tags, fused parts or gaps limits assumed): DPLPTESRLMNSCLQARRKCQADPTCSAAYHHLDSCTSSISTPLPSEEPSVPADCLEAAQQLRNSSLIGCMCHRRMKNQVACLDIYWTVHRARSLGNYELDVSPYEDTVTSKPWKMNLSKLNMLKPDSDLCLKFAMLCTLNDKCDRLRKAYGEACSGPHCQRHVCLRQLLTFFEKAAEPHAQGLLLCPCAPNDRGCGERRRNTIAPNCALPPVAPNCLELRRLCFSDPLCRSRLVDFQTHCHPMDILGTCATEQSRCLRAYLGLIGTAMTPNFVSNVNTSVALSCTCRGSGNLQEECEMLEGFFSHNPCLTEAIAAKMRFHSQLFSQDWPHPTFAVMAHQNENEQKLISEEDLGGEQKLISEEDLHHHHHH

B1: H4H2243N2 (antibody, human IgG4, V domains shown)
VH: QVQLVQSGAEVKKPGASVKVSCKASGYTFTSYGIIWVRQAPGQGLEWMGWISGYNGNTNYAQNLQGRVTMTTDTSTTTAYMELRSLRSDDTAVYYCARWGIATRPYYYYGMDVWGQGTTVTVSS
VL: DIQMTQSPSSLSASVGDRVTITCRASQDITNYLAWFQQKPGKAPKSLIYAASSLQSGVPSKFSGSGSGTDFTLTISSLQPEDFATYYCQQYNSYPPTFGPGTKVDIK
notes: human IgG4 Fc (H4H)
binding response of second antibody (nm) [1]: 0.09 nm
Amount of Antibody 1 bound (nm) [2]: 2.42 nm
% max blocking [3]: 95%
IC50 [3]: 1.12 nM
binding response of second antibody (nm) [4]: 0 nm

B4: H4H2352S (antibody, human IgG4, V domains shown)
VH: EVQLVQSGAEVKKPGASVKVSCKASGYTFTNYGITWVRQAPGQGLEWMGWISAYNGNTGYAQKFQGRVTMTTDTSTSTAYMELRSLRSDDTAVYYCAREDYDFWRAFDIWGQGTMVTVSS
VL: EIVLTQSPGTLSLSPGERATLSCRASQSVSSTYLAWLQQKPGQAPRLLIYGASSRATGIPDRFSGSGSGTDFTLTINRLEPEDFAVYYCQQYAYSPYTFGQGTKLEIK
notes: human IgG4 Fc (H4H); also called H4H2352S-1
binding response of second antibody (nm) [1]: 1.97 nm
Amount of Antibody 1 bound (nm) [2]: 2.74 nm
% max blocking [3]: 100%
IC50 [3]: 0.761 nM
binding response of second antibody (nm) [4]: 2.03 nm

More lines, in order of falling IC50 [3], values ahead:

binding response of second antibody (nm) [1]: 1.92 nm
Amount of Antibody 1 bound (nm) [2]: 2.82 nm
% max blocking [3]: 100%
IC50 [3]: 1.76 nM
binding response of second antibody (nm) [4]: 1.94 nm
B2: H4H2292S (antibody, human IgG4, V domains shown)
VH: EVQLVESGGGVVQPGRSLRLSCAASGFTFSSYGMHWVRQAPGKGLEWVSFIWYDGSNKYYADSVKGRFTISRDNSKNTLYLQMNSLTAEDTAVYYCARRGILTGTTAFDIWGQGTMVTVSS
VL: DIQMTQSPSSLSASVGDRVTITCRASQSISSYLNWYQQKPGKAPKLLIYAASSLQSGVPSRFSGSGSGTDFTLTIRSLIPEDFATYYCQQTYNTPFTFGPGTKVEIK
notes: human IgG4 Fc (H4H)

binding response of second antibody (nm) [1]: 1.44 nm
Amount of Antibody 1 bound (nm) [2]: 3.31 nm
% max blocking [3]: 91%
IC50 [3]: 1.29 nM
binding response of second antibody (nm) [4]: 1.44 nm
B3: H4H2350P (antibody, human IgG4, V domains shown)
VH: QVQLQESGPGLVKPSETLSLTCTVSGGSISTYYWSWFRQPPGKGLEWIGYIYYSGSTNHNPSLKSRVTISVDTSKNQFSLKLRSVTAADTAVYYCARVGPVGWGSWGNFDYWGQGTLVTVSS
VL: DIQLTQSPSFLSASVGDRVTITCWASQGISSYLAWSQQKPGKAPKLLIYAASTLQSGVPSRFSGSGSGTEFTLTISSLQPEDFATYYCQQLNSYPWTFGQGTKVEIK
notes: human IgG4 Fc (H4H)
